Measured values reported in article PMC9352680, “A comprehensive thermodynamic model for RNA binding by the Saccharomyces cerevisiae Pumilio protein PUF4”.

Target: T1, PUF4 RNA-binding domain (Saccharomyces cerevisiae, UniProt P25339 537-888)
T1 sequence: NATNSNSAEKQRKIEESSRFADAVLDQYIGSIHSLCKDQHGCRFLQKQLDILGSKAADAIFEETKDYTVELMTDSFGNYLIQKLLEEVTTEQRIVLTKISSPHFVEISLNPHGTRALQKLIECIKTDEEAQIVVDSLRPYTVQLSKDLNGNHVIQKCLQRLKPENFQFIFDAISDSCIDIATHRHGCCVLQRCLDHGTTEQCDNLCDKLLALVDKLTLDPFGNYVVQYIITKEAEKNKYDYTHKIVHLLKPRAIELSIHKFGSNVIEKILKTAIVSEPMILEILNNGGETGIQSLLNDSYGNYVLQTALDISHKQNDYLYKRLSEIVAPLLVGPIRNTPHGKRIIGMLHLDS
Experiment: Mg; RNA-MaP; 20 mM Na-HEPES pH 7.4, 30 mM KOAc, 0.75 mM MgCl2, 0.1% Tween-20, 5% glycerol, 0.1 mg/mL BSA, 2 mM DTT; 25 C; 0.0125-409.6 nM protein
Conditions: tags: N-His6-TEV cleaved; C-SNAP kept, Cy3B-labelled; label: tethered on chip by stalled RNA polymerase

Row | Binder | Kd
1 | UCUCUUAUUGUAUAUAGCUCUCUU (ssRNA) [Id_ii_S1_P3E.2_K3.1_C3.2_[C-2A]_H3.1_A3.1_F3.1_T3.2_[T9G]_[A10C]] | 12.1 nM
2 | UCUCUUCCUGUAUAUAACUCUCUU (ssRNA) [Id_ii_S1_P3E.2_K3.1_C3.2_[T-1C]_H3.1_A3.1_F3.1_T3.2_[T9A]_[A10C]] | 6.69 nM
3 | UCUCUUCUUGUAUAUAACUCUCUU (ssRNA) [Id_ii_S1_P3E.2_K3.1_C3.2_H3.1_A3.1_F3.1_T3.2_[T9A]_[A10C]] | 8.53 nM
4 | UCUCUUAAUGUAUAUAUGUCUCUU (ssRNA) [Id_ii_S1_P3E.2_K3.1_C3.2_[C-2A]_[T-1A]_H3.1_A3.1_F3.1_T3.2_[A10G]] | 12.7 nM
5 | UCUCUUAUUGUAUAUAGUUCUCUU (ssRNA) [Id_ii_S1_P3E.2_K3.1_C3.2_[C-2A]_H3.1_A3.1_F3.1_T3.2_[T9G]_[A10T]] | 6.25 nM
6 | UCUCUUCGUGUAUAUAGUUCUCUU (ssRNA) [Id_ii_S1_P3E.2_K3.1_C3.2_[T-1G]_H3.1_A3.1_F3.1_T3.2_[T9G]_[A10T]] | 3.77 nM
7 | UCUCUUCUUGUAUAUAAUUCUCUU (ssRNA) [Id_ii_S1_P3E.2_K3.1_C3.2_H3.1_A3.1_F3.1_T3.2_[T9A]_[A10T]] | 8.3 nM
8 | UCUCUUCCUGUAUAUAAUUCUCUU (ssRNA) [Id_ii_S1_P3E.2_K3.1_C3.2_[T-1C]_H3.1_A3.1_F3.1_T3.2_[T9A]_[A10T]] | 5.34 nM
9 | UCUCUUCCUGUAUAUACAUCUCUU (ssRNA) [Id_ii_S1_P3E.2_K3.1_C3.2_[T-1C]_H3.1_A3.1_F3.1_T3.2_[T9C]] | 17.7 nM
10 | UCUCUUCAUGUAUAUAUUUCUCUU (ssRNA) [Id_ii_S1_P3E.2_K3.1_C3.2_[T-1A]_H3.1_A3.1_F3.1_T3.2_[A10T]] | 8.07 nM
11 | UCUCUUUGCGUAUUAUCUCUU (ssRNA) [Ib_S1_P4E.1_K4.1_C4.1_H4.1_[T3C]_[A4G]_A4.1_F4.1_T4.1] | > 2300 nM
12 | UCUCUUCGUGUAUAUACCUCUCUU (ssRNA) [Id_ii_S1_P3E.2_K3.1_C3.2_[T-1G]_H3.1_A3.1_F3.1_T3.2_[T9C]_[A10C]] | 17.5 nM
13 | UCUCUUCGUGUAUAUAAUUCUCUU (ssRNA) [Id_ii_S1_P3E.2_K3.1_C3.2_[T-1G]_H3.1_A3.1_F3.1_T3.2_[T9A]_[A10T]] | 8.53 nM
14 | UCUCUUUAUCUAUUAUCUCUU (ssRNA) [Ib_S1_P4E.1_K4.1_C4.1_H4.1_[G2A]_[A4C]_A4.1_F4.1_T4.1] | > 2300 nM
15 | UCUCUUCUUGUAUAUAGUUCUCUU (ssRNA) [Id_ii_S1_P3E.2_K3.1_C3.2_H3.1_A3.1_F3.1_T3.2_[T9G]_[A10T]] | 3.72 nM
16 | UCUCUUCUUGUAUAUACCUCUCUU (ssRNA) [Id_ii_S1_P3E.2_K3.1_C3.2_H3.1_A3.1_F3.1_T3.2_[T9C]_[A10C]] | 7.41 nM
17 | UCUCUUAUUGUAUAUAUUUCUCUU (ssRNA) [Id_ii_S1_P3E.2_K3.1_C3.2_[C-2A]_H3.1_A3.1_F3.1_T3.2_[A10T]] | 9.49 nM
18 | UCUCUUCGUGUAUAUAUUUCUCUU (ssRNA) [Id_ii_S1_P3E.2_K3.1_C3.2_[T-1G]_H3.1_A3.1_F3.1_T3.2_[A10T]] | 8.56 nM
19 | UCUCUUCAUGUAUAUAGCUCUCUU (ssRNA) [Id_ii_S1_P3E.2_K3.1_C3.2_[T-1A]_H3.1_A3.1_F3.1_T3.2_[T9G]_[A10C]] | 5.33 nM
20 | UCUCUUAUUGUAUAUAACUCUCUU (ssRNA) [Id_ii_S1_P3E.2_K3.1_C3.2_[C-2A]_H3.1_A3.1_F3.1_T3.2_[T9A]_[A10C]] | 12.9 nM

Row | Binder | Kd
21 | UCUCUUAUUGUAUAUACCUCUCUU (ssRNA) [Id_ii_S1_P3E.2_K3.1_C3.2_[C-2A]_H3.1_A3.1_F3.1_T3.2_[T9C]_[A10C]] | 17.6 nM
22 | UCUCUUCAUGUAUAUAAUUCUCUU (ssRNA) [Id_ii_S1_P3E.2_K3.1_C3.2_[T-1A]_H3.1_A3.1_F3.1_T3.2_[T9A]_[A10T]] | 11.6 nM
23 | UCUCUUCAUGUAUAUACCUCUCUU (ssRNA) [Id_ii_S1_P3E.2_K3.1_C3.2_[T-1A]_H3.1_A3.1_F3.1_T3.2_[T9C]_[A10C]] | 17.7 nM
24 | UCUCUUCCUGUAUAUAUAUCUCUU (ssRNA) [Id_ii_S1_P3E.2_K3.1_C3.2_[T-1C]_H3.1_A3.1_F3.1_T3.2] | 3.76 nM
25 | UCUCUUCAUGUAUAUAACUCUCUU (ssRNA) [Id_ii_S1_P3E.2_K3.1_C3.2_[T-1A]_H3.1_A3.1_F3.1_T3.2_[T9A]_[A10C]] | 16.9 nM
26 | UCUCUUCAUGUAUAUAAGUCUCUU (ssRNA) [Id_ii_S1_P3E.2_K3.1_C3.2_[T-1A]_H3.1_A3.1_F3.1_T3.2_[T9A]_[A10G]] | 6.69 nM
27 | UCUCUUCGUGUAUAUAAAUCUCUU (ssRNA) [Id_ii_S1_P3E.2_K3.1_C3.2_[T-1G]_H3.1_A3.1_F3.1_T3.2_[T9A]] | 11.9 nM
28 | UCUCUUCGUGUAUAUAGGUCUCUU (ssRNA) [Id_ii_S1_P3E.2_K3.1_C3.2_[T-1G]_H3.1_A3.1_F3.1_T3.2_[T9G]_[A10G]] | 9.62 nM
29 | UCUCUUCUUGUAUAUACUUCUCUU (ssRNA) [Id_ii_S1_P3E.2_K3.1_C3.2_H3.1_A3.1_F3.1_T3.2_[T9C]_[A10T]] | 7.04 nM
30 | UCUCUUAAUGUAUAUAUCUCUCUU (ssRNA) [Id_ii_S1_P3E.2_K3.1_C3.2_[C-2A]_[T-1A]_H3.1_A3.1_F3.1_T3.2_[A10C]] | 10.4 nM
31 | UCUCUUCGUGUAUAUAUCUCUCUU (ssRNA) [Id_ii_S1_P3E.2_K3.1_C3.2_[T-1G]_H3.1_A3.1_F3.1_T3.2_[A10C]] | 7.58 nM
32 | UCUCUUCCUGUAUAUAUCUCUCUU (ssRNA) [Id_ii_S1_P3E.2_K3.1_C3.2_[T-1C]_H3.1_A3.1_F3.1_T3.2_[A10C]] | 4.74 nM
33 | UCUCUUCCUGUAUAUAAGUCUCUU (ssRNA) [Id_ii_S1_P3E.2_K3.1_C3.2_[T-1C]_H3.1_A3.1_F3.1_T3.2_[T9A]_[A10G]] | 12.9 nM
34 | UCUCUUCCUGUAUAUAUUUCUCUU (ssRNA) [Id_ii_S1_P3E.2_K3.1_C3.2_[T-1C]_H3.1_A3.1_F3.1_T3.2_[A10T]] | 5.94 nM
35 | UCUCUUCGUGUAUAUAUAUCUCUU (ssRNA) [Id_ii_S1_P3E.2_K3.1_C3.2_[T-1G]_H3.1_A3.1_F3.1_T3.2] | 5.37 nM
36 | UCUCUUCUUGUAUAUACGUCUCUU (ssRNA) [Id_ii_S1_P3E.2_K3.1_C3.2_H3.1_A3.1_F3.1_T3.2_[T9C]_[A10G]] | 10.9 nM
37 | UCUCUUCCUGUAUAUACUUCUCUU (ssRNA) [Id_ii_S1_P3E.2_K3.1_C3.2_[T-1C]_H3.1_A3.1_F3.1_T3.2_[T9C]_[A10T]] | 6.95 nM
38 | UCUCUUAUUGUAUAUAUGUCUCUU (ssRNA) [Id_ii_S1_P3E.2_K3.1_C3.2_[C-2A]_H3.1_A3.1_F3.1_T3.2_[A10G]] | 12.3 nM
39 | UCUCUUAUUGUAUAUAAUUCUCUU (ssRNA) [Id_ii_S1_P3E.2_K3.1_C3.2_[C-2A]_H3.1_A3.1_F3.1_T3.2_[T9A]_[A10T]] | 12.2 nM
40 | UCUCUUCCUGUAUAUACGUCUCUU (ssRNA) [Id_ii_S1_P3E.2_K3.1_C3.2_[T-1C]_H3.1_A3.1_F3.1_T3.2_[T9C]_[A10G]] | 17.4 nM

Row | Binder | Kd
41 | UCUCUUUAUGUAUUAUCUCUU (ssRNA) [Ib_S1_P4E.1_K4.1_C4.1_H4.1_[G2A]_[A4G]_A4.1_F4.1_T4.1] | 36 nM
42 | UCUCUUAUUGUAUAUAAAUCUCUU (ssRNA) [Id_ii_S1_P3E.2_K3.1_C3.2_[C-2A]_H3.1_A3.1_F3.1_T3.2_[T9A]] | 13.9 nM
43 | UCUCUUAUUGUAUAUAUCUCUCUU (ssRNA) [Id_ii_S1_P3E.2_K3.1_C3.2_[C-2A]_H3.1_A3.1_F3.1_T3.2_[A10C]] | 8.52 nM
44 | UCUCUUCCUGUAUAUAUGUCUCUU (ssRNA) [Id_ii_S1_P3E.2_K3.1_C3.2_[T-1C]_H3.1_A3.1_F3.1_T3.2_[A10G]] | 7.59 nM
45 | UCUCUUUUUUUAUUAUCUCUU (ssRNA) [Ib_S1_P4E.1_K4.1_C4.1_H4.1_[G2T]_[A4T]_A4.1_F4.1_T4.1] | > 2300 nM
46 | UCUCUUCUUGUAUAUAGCUCUCUU (ssRNA) [Id_ii_S1_P3E.2_K3.1_C3.2_H3.1_A3.1_F3.1_T3.2_[T9G]_[A10C]] | 4.12 nM
47 | UCUCUUCCUGUAUAUAGUUCUCUU (ssRNA) [Id_ii_S1_P3E.2_K3.1_C3.2_[T-1C]_H3.1_A3.1_F3.1_T3.2_[T9G]_[A10T]] | 4.07 nM
48 | UCUCUUAUUGUAUAUAUAUCUCUU (ssRNA) [Id_ii_S1_P3E.2_K3.1_C3.2_[C-2A]_H3.1_A3.1_F3.1_T3.2] | 4.87 nM
49 | UCUCUUCAUGUAUAUAGUUCUCUU (ssRNA) [Id_ii_S1_P3E.2_K3.1_C3.2_[T-1A]_H3.1_A3.1_F3.1_T3.2_[T9G]_[A10T]] | 5.84 nM
50 | UCUCUUUGUAUCUUAUCUCUU (ssRNA) [Ic_S1_P4E.1_K4.1_C4.1_H4.1_A4.1_[A6C]_F4.1_T4.1] | 4.1 nM
51 | UCUCUUAUUGUAUAUACGUCUCUU (ssRNA) [Id_ii_S1_P3E.2_K3.1_C3.2_[C-2A]_H3.1_A3.1_F3.1_T3.2_[T9C]_[A10G]] | 26.9 nM
52 | UCUCUUAAUGUAUAUAUUUCUCUU (ssRNA) [Id_ii_S1_P3E.2_K3.1_C3.2_[C-2A]_[T-1A]_H3.1_A3.1_F3.1_T3.2_[A10T]] | 13.4 nM
53 | UCUCUUCAUGUAUAUAUCUCUCUU (ssRNA) [Id_ii_S1_P3E.2_K3.1_C3.2_[T-1A]_H3.1_A3.1_F3.1_T3.2_[A10C]] | 8.05 nM
54 | UCUCUUCAUGUAUAUACUUCUCUU (ssRNA) [Id_ii_S1_P3E.2_K3.1_C3.2_[T-1A]_H3.1_A3.1_F3.1_T3.2_[T9C]_[A10T]] | 13.2 nM
55 | UCUCUUCAUGUAUAUAAAUCUCUU (ssRNA) [Id_ii_S1_P3E.2_K3.1_C3.2_[T-1A]_H3.1_A3.1_F3.1_T3.2_[T9A]] | 13.1 nM
56 | UCUCUUCGUACAUUAUCUCUU (ssRNA) [Ib_S1_P4E.1_K4.1_C4.1_H4.1_[T1C]_A4.1_[T5C]_F4.1_T4.1] | 16.8 nM
57 | UCUCUUAUUGUAUAUACUUCUCUU (ssRNA) [Id_ii_S1_P3E.2_K3.1_C3.2_[C-2A]_H3.1_A3.1_F3.1_T3.2_[T9C]_[A10T]] | 10.3 nM
58 | UCUCUUCCUGUAUAUACCUCUCUU (ssRNA) [Id_ii_S1_P3E.2_K3.1_C3.2_[T-1C]_H3.1_A3.1_F3.1_T3.2_[T9C]_[A10C]] | 24.3 nM
